IntAct's records for PubMed 24997597

B1: Centrosomal protein of 152 kDa (Homo sapiens), O94986-3 (parent)
chain: MSLDFGSVALPVQNEDEEYDEEDYEREKELQQLLTDLPHDMLDDDLSSPELQYSDCSEDGTDGQPHHPEQLEMSWNEQMLPKSQSVNGYNEIQSLYAGEKCGNVWEENRSKTEDRHPVYHPEEGGDEGGSGYSPPSKCEQTDLYHLPENFRPYTNGQKQEFNNQATNVIKFSDPQWNHFQGPSCQGLEPYNKVTYKPYQSSAQNNGSPAQEITGSDTFEGLQQQFLGANENSAENMQIIQLQVLNKAKERQLENLIEKLNESERQIRYLNHQLVIIKDEKDGLTLSLRESQKLFQNGKEREIQLEAQIKALETQIQALKVNEEQMIKKSRTTEMALESLKQQLVDLHHSESLQRAREQHESIVMGLTKKYEEQVLSLQKNLDATVTALKEQEDICSRLKDHVKQLERNQEAIKLEKTEIINKLTRSLEESQKQCAHLLQSGSVQEVAQLQFQLQQAQKAHAMSANMNKALQEELTELKDEISLYESAAKLGIHPSDSEGELNIELTESYVDLGIKKVNWKKSKVTSIVQEEDPNEELSKDEFILKLKAEVQRLLGSNSMKRHLVSQLQNDLKDCHKKIEDLHQVKKDEKSIEVETKTDTSEKPKNQLWPESSTSDVVRDDILLLKNEIQVLQQQNQELKETEGKLRNTNQDLCNQMRQMVQDFDHDKQEAVDRCERTYQQHHEAMKTQIRESLLAKHALEKQQLFEAYERTHLQLRSELDKLNKEVTAVQECYLEVCREKDNLELTLRKTTEKEQQTQEKIKEKLIQQLEKEWQSKLDQTIKAMKKKTLDCGSQTDQVTTSDVISKKEMAIMIEEQKCTIQQNLEQEKDIAIKGAMKKLEIELELKHCENITKQVEIAVQNAHQRWLGELPELAEYQALVKAEQKKWEEQHEVSVNKRISFAVSEAKEKWKSELENMRKNILPGKELEEKIHSLQKELELKNEEVPVVIRAELAKARSEWNKEKQEEIHRIQEQNEQDYRQFLDDHRNKINEVLAAAKEDFMKQKTELLLQKETELQTCLDQSRREWTMQEAKRIQLEIYQYEEDILTVLGVLLSDTQKEHISDSEDKQLLEIMSTCSSKWMSVQYFEKLKGCIQKAFQDTLPLLVENADPEWKKRNMAELSKDSASQGTGQGDPGPAAGHHAQPLALQATEAEAEENNKVVEELIEENNDMKNKLEELQTLCKTPPRSLSAGAIENACLPCSGGALEELRGQYIKAVKKIKCDMLRYIQESKERAAEMVKAEVLRERQETARKMRKYYLICLQQILQDDGKEGAEKKIMNAASKLATMAKLLETPISSKSQSKTTQSALPLTSEMLIAVKKSKRNDVNQKIPCCIESKSNSVNTITRTLCEQAPKRRAACNLQRLLENSEHQSIKHVGSKETHLEFQFGDGSCKHLNSLPRNVSPEFVPCEGEGGFGLHKKKDLLSDNGSESLPHSAAYPFLGTLGNKPSPRCTPGPSESGCMHITFRDSNERLGLKVYKCNPLMESENAASEKSQGLDVQEPPVKDGGDLSDCLGWPSSSATLSFDSREASFVHGRPQGTLEIPSESVKSKQFSPSGYLSDTEESNMICQTMKCQRYQTPYLSEETTYLEPGKISVNCGHPSRHKADRLKSDFKKLSSTLPSSVCQQPSRKLIVPLSSQQDSGFDSPFVNLD
partner: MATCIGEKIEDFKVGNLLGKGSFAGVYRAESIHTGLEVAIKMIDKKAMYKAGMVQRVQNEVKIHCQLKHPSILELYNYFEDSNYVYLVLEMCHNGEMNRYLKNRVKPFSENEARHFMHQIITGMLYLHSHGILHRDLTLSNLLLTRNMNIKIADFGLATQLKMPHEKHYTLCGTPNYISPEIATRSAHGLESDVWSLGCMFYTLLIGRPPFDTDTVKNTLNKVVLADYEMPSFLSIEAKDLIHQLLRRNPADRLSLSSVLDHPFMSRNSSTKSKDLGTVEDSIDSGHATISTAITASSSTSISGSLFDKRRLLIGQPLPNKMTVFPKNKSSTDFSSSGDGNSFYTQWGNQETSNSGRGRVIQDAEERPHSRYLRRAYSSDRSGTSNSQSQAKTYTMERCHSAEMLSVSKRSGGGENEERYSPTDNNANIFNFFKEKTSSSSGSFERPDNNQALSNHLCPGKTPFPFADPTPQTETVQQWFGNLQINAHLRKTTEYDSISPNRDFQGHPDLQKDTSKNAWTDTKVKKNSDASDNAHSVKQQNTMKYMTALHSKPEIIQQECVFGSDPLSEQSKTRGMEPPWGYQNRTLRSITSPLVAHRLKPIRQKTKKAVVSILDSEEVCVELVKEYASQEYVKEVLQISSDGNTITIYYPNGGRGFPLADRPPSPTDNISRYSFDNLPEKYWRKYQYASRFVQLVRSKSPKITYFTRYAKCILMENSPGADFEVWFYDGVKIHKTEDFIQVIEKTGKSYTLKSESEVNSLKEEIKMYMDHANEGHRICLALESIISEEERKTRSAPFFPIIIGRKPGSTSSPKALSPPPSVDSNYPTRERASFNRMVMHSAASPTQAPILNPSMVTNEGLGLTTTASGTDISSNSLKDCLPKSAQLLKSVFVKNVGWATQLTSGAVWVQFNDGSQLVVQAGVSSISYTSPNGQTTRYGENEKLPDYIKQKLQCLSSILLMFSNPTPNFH
B2: Serine/threonine-protein kinase PLK4 (Homo sapiens), O00444 (parent)
chain: B1 partner

Variants of: B1
Settings: with plk4_human PLK4, O00444

| Variant | effect of a mutation on the interaction |
| --- | --- |
| E21K | decreasing interaction strength |
| V8A | decreasing interaction strength |

Variants of: B2
Settings: with CEP152, O94986-3

| Variant | effect of a mutation on the interaction |
| --- | --- |
| K711A | decreasing interaction strength |
| K685A | disrupting interaction strength |
